What all share (assay): SPR
Holding throughout (settings): scFv

Assay [1] has as its target H5VN04 (influenza A virus H5VN04 (H5N1)).
Assay [2] deals with H5 (influenza A virus H5VN04 (H5N1)).
Assay [3] shares this target. This is another data set of the same source.
The target is the same in assay [4]. The source holds these as a separate data set.

One may read the Kd as the concentration at which binding is half-saturated. Read a low Kd as a tighter complex. In assay [1], F10 wt returned a Kd of 0.1 nM.
The same measure, in the same setting: as for CR6261 wt, the figure is 0.34 nM.
As to F10, the Kd came to 0.1 nM in assay [2], 270 nM in assay [3] and 1.2 nM in assay [4].
